How the values were obtained:
Test in all cases: SEC
WDR24 ∆CTD = biological target: T1, WDR24 ∆CTD (human, UniProt Q96S15 1-700)
T1 sequence (looked up): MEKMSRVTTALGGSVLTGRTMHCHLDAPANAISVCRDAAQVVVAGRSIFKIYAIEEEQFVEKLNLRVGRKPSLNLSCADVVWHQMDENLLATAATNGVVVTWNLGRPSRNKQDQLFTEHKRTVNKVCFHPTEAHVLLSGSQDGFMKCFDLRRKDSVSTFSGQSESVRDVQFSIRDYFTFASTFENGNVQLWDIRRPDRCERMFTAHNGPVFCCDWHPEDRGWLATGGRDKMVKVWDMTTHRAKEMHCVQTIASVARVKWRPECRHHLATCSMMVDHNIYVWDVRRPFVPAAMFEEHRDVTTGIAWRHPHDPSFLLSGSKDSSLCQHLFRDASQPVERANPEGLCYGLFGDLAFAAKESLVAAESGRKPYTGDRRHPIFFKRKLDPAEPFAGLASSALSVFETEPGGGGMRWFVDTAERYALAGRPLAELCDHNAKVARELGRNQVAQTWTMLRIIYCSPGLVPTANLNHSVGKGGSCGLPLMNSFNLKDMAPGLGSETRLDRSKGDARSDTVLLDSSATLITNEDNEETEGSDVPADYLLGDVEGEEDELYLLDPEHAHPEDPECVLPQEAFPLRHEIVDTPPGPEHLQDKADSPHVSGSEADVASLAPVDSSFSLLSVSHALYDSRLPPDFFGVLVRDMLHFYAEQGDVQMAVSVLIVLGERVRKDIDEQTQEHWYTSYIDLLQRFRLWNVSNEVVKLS

MIOS A560E = biological target: T2, MIOS A560E (human, UniProt Q9NXC5 1-875, A560E)
T2 sequence: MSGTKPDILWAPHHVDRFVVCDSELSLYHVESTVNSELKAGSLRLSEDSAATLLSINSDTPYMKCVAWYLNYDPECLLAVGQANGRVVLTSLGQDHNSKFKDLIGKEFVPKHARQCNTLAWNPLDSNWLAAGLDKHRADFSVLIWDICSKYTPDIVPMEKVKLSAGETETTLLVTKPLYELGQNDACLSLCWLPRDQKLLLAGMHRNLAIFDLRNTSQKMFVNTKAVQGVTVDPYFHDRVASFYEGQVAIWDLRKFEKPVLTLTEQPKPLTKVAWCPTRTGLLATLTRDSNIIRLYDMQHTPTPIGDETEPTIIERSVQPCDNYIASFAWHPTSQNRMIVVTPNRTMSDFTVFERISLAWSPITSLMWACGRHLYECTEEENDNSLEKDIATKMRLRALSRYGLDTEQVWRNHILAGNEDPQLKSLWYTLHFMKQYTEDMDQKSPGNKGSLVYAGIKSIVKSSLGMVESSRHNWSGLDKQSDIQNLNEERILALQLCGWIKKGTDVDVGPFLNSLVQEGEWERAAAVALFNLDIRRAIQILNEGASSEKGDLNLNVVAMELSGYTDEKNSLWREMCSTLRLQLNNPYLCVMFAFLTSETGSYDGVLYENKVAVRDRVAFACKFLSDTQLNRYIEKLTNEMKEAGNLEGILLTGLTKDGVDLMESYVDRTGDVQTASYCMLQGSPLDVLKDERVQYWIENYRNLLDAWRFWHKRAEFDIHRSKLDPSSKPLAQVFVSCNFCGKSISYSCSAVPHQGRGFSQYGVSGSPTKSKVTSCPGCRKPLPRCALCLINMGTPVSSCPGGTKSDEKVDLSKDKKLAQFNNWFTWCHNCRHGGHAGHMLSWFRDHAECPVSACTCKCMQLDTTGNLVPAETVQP

WDR59 ∆CTD = biological target: T3, WDR59 ∆CTD (human, UniProt Q6PJI9 1-890)
T3 sequence (looked up): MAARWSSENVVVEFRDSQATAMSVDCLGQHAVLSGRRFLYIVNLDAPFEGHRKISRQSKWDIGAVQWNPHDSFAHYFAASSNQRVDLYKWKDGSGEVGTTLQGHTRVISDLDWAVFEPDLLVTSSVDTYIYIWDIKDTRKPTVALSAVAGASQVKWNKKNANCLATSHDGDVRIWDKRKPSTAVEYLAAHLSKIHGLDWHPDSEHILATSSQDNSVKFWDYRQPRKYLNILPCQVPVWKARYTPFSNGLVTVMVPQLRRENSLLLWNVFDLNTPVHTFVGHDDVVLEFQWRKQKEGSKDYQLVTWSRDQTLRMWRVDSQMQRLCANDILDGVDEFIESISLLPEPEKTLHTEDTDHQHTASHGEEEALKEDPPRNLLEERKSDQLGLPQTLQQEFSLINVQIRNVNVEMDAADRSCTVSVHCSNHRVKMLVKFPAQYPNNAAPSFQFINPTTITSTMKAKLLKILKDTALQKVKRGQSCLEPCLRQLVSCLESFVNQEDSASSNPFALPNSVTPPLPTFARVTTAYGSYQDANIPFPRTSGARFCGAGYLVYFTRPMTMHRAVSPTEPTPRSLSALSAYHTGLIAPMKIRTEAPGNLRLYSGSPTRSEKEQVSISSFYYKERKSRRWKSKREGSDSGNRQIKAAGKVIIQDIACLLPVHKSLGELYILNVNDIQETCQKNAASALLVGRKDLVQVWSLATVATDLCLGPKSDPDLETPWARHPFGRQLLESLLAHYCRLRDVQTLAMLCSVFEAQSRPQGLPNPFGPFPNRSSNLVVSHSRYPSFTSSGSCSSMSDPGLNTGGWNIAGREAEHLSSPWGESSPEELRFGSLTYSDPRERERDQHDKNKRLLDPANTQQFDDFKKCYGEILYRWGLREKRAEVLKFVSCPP

- binding result (WDR24 ∆CTD): binds
- binding result (MIOS A560E): binds
- binding result (WDR59 ∆CTD): binds
B1: tag-free SEC13 (natural protein, human)
chain: MVSVINTVDTSHEDMIHDAQMDYYGTRLATCSSDRSVKIFDVRNGGQILIADLRGHEGPVWQVAWAHPMYGNILASCSYDRKVIIWREENGTWEKSHEHAGHDSSVNSVCWAPHDYGLILACGSSDGAISLLTYTGEGQWEVKKINNAHTIGCNAVSWAPAVVPGSLIDHPSGQKPNYIKRFASGGCDNLIKLWKEEEDGQWKEEQKLEAHSDWVRDVAWAPSIGLPTSTIASCSQDGRVFIWTCDDASSNTWSPKLLHKFNDVVWHVSWSITANILAVSGGDNKVTLWKESVDGQWVCISDVNKGQGSVSASVTEGQQNEQ
